From patent US20210380702A1 (Regeneron, published 2021)
Values joined by “and” are separate entries in the source; they are usually repeats but may differ in a detail not shown here. Equal values may be shown once.

Columns and labels:
[1] = biological target: T1, recombinant human PD-L1 (amino acids 19-239 of NP_054862.1) expressed with a C-terminal mouse IgG2a Fc tag (human); experiment: competition ELISA: 0.5 nM hPD-L1-mFc binding to coated hPD-1-hFc
T1 construct: called dimeric; also called hPD-L1-mFc
T1 sequence (chain, as listed by the source limits assumed): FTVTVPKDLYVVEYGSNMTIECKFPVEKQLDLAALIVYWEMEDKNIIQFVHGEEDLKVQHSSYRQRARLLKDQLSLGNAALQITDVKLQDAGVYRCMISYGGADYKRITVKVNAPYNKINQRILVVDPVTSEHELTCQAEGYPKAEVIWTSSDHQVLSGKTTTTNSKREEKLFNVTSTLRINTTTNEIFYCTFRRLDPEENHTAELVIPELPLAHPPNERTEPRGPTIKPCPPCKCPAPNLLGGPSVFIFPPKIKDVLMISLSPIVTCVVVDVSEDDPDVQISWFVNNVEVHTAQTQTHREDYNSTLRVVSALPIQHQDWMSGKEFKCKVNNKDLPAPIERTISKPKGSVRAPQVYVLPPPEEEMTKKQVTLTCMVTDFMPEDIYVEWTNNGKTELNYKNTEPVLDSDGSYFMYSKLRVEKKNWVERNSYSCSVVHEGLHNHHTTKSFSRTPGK
Procedure: (§1) The ability of monoclonal anti-PD-L1 antibodies to block human PD-L1 from binding to its binding partners, the human PD-1 and the human B7-1 receptors, was measured using two competition sandwich ELISA formats.
(§2) A dimeric human PD-1 protein comprised of a portion of the extracellular domain (amino acids 25-170 of accession number NP_005009.2 with a C93S change) that was expressed with a C-terminal hFc tag (hPD-1-hFc; SEQ ID: 350) and a dimeric human B7-1 protein comprised of a portion of the extracellular domain expressed with C-terminal hFc tag and hexahistidine tags (hB7-1-hFc-6His; R&D Systems, #140-B1) were separately coated at 2 μg/mL on a 96-well microtiter plate in a PBS buffer overnight at 4° C. […] These antibody-protein complexes were then incubated for 1 hour at room temperature (RT). […] The complexes were allowed to bind to the coated plates for 1 hour at RT. […] Samples were developed with a TMB solution (BD Biosciences, #51-2606KC and #51-2607KC) to produce a colorimetric reaction and neutralized with 1M sulfuric acid before measuring absorbance at 450 nm on a Victor X5 plate reader. Data analysis used a sigmoidal dose-response model within Prism™ software.

[2] = biological target: T2, recombinant human PD-L1 (amino acids 19-239 of NP_054862.1) expressed with a C-terminal human IgG1 Fc tag (human); experiment: SPR (Biacore 3000): 100 nM hPD-L1-hFc + 500 nM mAb on captured hPD-1-mFc, 25C
T2 construct: also called hPD-L1-hFc
T2 sequence (chain, as listed by the source limits assumed): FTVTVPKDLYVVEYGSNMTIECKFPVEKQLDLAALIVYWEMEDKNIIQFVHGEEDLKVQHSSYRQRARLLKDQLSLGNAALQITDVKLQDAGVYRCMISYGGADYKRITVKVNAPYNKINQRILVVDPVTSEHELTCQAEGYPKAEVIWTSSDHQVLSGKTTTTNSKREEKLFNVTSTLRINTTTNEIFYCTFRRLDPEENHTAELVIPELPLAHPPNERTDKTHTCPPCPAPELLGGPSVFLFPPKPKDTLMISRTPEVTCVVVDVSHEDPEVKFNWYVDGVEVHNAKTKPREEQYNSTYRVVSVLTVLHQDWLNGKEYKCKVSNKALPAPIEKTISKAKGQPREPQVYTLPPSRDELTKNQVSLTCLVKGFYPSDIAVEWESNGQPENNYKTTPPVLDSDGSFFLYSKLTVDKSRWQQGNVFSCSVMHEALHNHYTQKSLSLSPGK
Procedure: Next, inhibition studies for anti-PD-L1 monoclonal antibodies expressed with human Fc were performed on Biacore 3000 instrument. […] The entire experiment was performed at 25° C. in HBST running buffer (0.01 M HEPES pH7.4, 0.15M NaCl, 3 mM EDTA, 0.05% v/v Surfactant P20). The real-time binding responses were monitored during the entire course of the experiment and the binding response at the end of every step was recorded.

[3] = biological target: T1, recombinant human PD-L1 (amino acids …); experiment: competition ELISA: 8 nM hPD-L1-mFc binding to coated hB7-1-hFc-6His
Procedure: as §1, §2

[4] = biological target: T3, recombinant cynomolgus monkey PD-L1 expressed with a C-terminal mouse IgG2a Fc tag (cynomolgus monkey); experiment: SPR (Biacore), mAb captured, 37C
T3 construct: also called MfPD-L1-mFc; monkey PD-L1-mFc
T3 sequence (chain, as listed by the source limits assumed): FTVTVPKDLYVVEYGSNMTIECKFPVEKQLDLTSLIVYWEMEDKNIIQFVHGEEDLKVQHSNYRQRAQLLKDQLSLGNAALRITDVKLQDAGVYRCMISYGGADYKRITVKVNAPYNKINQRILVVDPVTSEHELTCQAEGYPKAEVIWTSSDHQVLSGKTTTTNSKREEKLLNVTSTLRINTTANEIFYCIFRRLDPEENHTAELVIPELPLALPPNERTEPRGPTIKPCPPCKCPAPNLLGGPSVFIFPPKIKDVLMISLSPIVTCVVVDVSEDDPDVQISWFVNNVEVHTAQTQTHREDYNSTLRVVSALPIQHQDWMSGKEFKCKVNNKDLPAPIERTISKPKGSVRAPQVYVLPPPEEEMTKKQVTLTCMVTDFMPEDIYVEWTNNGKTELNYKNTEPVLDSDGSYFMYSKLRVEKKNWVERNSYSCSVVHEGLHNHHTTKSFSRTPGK

[5] = biological target: T4, full length human PD-L1 (amino acids 1 to 290 of NP_054862.1) on transfected cells (human, UniProt Q9NZQ7 19-290); experiment: FACS, 100 nM antibody, HEK293/hPD-L1 cells
T4 construct: also called HEK293/hPD-L1; Raji/hPD-L1
T4 sequence (Q9NZQ7 19-290 limits assumed): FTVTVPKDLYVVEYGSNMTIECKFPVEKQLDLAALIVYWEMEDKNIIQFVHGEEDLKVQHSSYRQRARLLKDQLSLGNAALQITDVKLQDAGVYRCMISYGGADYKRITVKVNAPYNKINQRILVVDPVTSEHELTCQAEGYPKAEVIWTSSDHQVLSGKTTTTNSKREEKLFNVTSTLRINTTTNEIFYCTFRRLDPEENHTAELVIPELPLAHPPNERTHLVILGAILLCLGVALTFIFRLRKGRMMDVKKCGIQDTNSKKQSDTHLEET
Procedure: (§3) The binding of anti-PD-L1 antibodies to a human embryonic kidney cell line (HEK293; ATCC, #CRL-1573) stably transfected with full length human PD-L1 (amino acids 1 to 290 of accession number NP_054862.1) (HEK293/hPD-L1) was determined by FACS.
(§4) For the assay, adherent cells were detached using enzyme-free dissociation buffer and blocked with complete medium. Cells were centrifuged and resuspended at a concentration of 2.8×10\hat{ }6 cells/mL in cold PBS containing 2% FBS. […] Cells were washed with D-PBS containing 2% FBS to remove unbound secondary detection reagents and fluorescence measurements were acquired using a HyperCyte (IntelliCyt, Inc.) flow cytometer. Data was analyzed using HyperCyte software.

[6] = biological target: T4, full length human PD-L1 (amino acids 1 …); experiment: FACS, 100 nM antibody
Procedure: as §3, §4

[7] = biological target: T1, recombinant human PD-L1 (amino acids …); experiment: BLI (Octet Red96): 100 nM hPD-L1-mFc + 500 nM mAb on captured hPD-1-hFc, 25C
Procedure: Inhibition studies for anti-PD-L1 monoclonal antibodies expressed with mouse Fc were performed on an Octet Red96 instrument. […] Approximately 0.8 nm to 1.2 nm of recombinant human PD-1 expressed with a C-terminal human IgG1 Fc tag (hPD-1-hFc; SEQ ID: 350) was captured using anti-human IgG Fc capture biosensors. […] The entire experiment was performed at 25° C. in Octet HBST buffer (0.01 M HEPES pH7.4, 0.15M NaCl, 3 mM EDTA, 0.05% v/v Surfactant P20, 0.1 mg/mL BSA) with a plate shaking at a speed of 1000 rpm. The biosensors were washed in Octet HBST buffer in between each step of the experiment. The real-time binding response was monitored during the course of the experiment and the binding response at the end of every step was recorded.

[8] = biological target: T4, full length human PD-L1 (amino acids 1 …); experiment: cell-based or functional assay

% maximum blocking [1] [%]	IC50 [1] [nM]	% Blocking [2] [%]	% maximum blocking [3] [%]	IC50 [3] [nM]	Kd [4]	koff [4]	kon [4]	t1/2 [4]	MFI [5] [MFI]	Ratio of HEK293/hPD-L1 to HEK293 parental cells [6]	% Blocking [7] [%]	Emax mean [%] @ 100 nM [8] [%]	Concentration [M] of Antibody at 125% activation [8] [M]	Binder
100	< 0.25	86	101	4.1	0.0471 nM and 0.028 nM	0.000111 s⁻¹ and 6.76e-05 s⁻¹	2.36e+06 M⁻¹ s⁻¹ and 2.41e+06 M⁻¹ s⁻¹	1.73 h and 2.85 h	324000	157				H1H9364P2 (antibody, V domains shown, human IgG1 Fc (H1H prefix)) VH: EVQLVESGGGLVQPGRSLRLSCAASGFTFDDYALHWVRQAPGKGLEWVSGISWTGGTIDYADSVKGRFTISRDNAKNSLYLQMSSLRTEDTAIYYCTRDIRGNWKYGGWFDPWGQGTLVTVSS VL: not shown
23			98	< 4					158000	115	-68	75.6		H2aM8312N (antibody, V domains shown, human variable regions, mouse IgG2 Fc (H2aM prefix); also called H2M8312N) VH: QVHLVQSGAEVKKPGASVKVSCKASGYTFTGYYIHWVRQAPGHGLEWMGWLNPNTGTTKYIQNFQGRVTMTRDTSSSTAYMELTRLRSDDTAVYYCARDEDWNYGSWFDTWGQGTLVTVSS VL: not shown
93	< 0.25		97	< 4					195000	95	94	235	1.44e-11	H2aM8314N (antibody, V domains shown, human variable regions, mouse IgG2 Fc (H2aM prefix); also called H2M8314N) VH: EVQLVESGGGVVRPGGSLRLSCAASGFTFDDYGMTWVRQAPGRGLEWVSGIHWHGKRTGYADSVKGRFTISRDNAKKSLYLQMNSLKGEDTALYHCVRGGMSTGDWFDPWGQGTLVIVSS VL: DIQMTQSPSSLSASLGDRVTITCRASQSINSYLNWYQQKPGKAPKLLIYVASSLQSGVPSRFSGSGSGTEFTLTISNLQPEDFATYYCQQSYSTPPITFGQGTRLEIK
-11			-166						67600	53	-87	109		H2aM8317N (antibody, V domains shown, human variable regions, mouse IgG2 Fc (H2aM prefix); also called H2M8317N) VH: EVQLVESGGGLVQPGGSLRLSCAASGFTVGSNYMNWVRQAPGKGLEWVSVIYSGGSTYYADSVKGRFTISRLTSKNTLYLQMSSLRPEDTAVYYCARGIRGLDVWGQGTTVTVSS VL: DIQMTQSPSSLSASVGDRVTITCRASQTINIYLNWYQQKPGRAPRLLIYAASSLQSGVPSRFSGSGSGTDFTLTISSLQPEDFATYYCHQSYSTPPITFGQGTRLEIK
10			-124						112000	85	-94	117		H2aM8321N (antibody, V domains shown, human variable regions, mouse IgG2 Fc (H2aM prefix); also called H2M8321N) VH: EERLVESGGDLVQPGGSLRLSCAASGITVGTNYMNWVRQAPGKGLEWVSVISSGGNTHYADSVKGRFIMSRQTSKNTLYLQMNSLETEDTAVYYCARGIRGLDVWGQGTMVTVSS VL: DIQMTQSPSSLSASVGDRVTITCRASQSMSSYLNWYQQKPGRAPKLLIFAASSLQSGVPSRFSGSGSGTDFTLTISSLQPEDFATYYCQQSYSTPPITFGQGTRLEIK
76	0.39		98	< 4					14900	11	58	113		H2aM8310N (antibody, V domains shown, human variable regions, mouse IgG2 Fc (H2aM prefix); also called H2M8310N) VH: QVQLVQSGAEVKKPGASVQVSCKASGYSFTGYYIHWVRQAPGQGLEWMGWINPNSGTKKYAHKFQGRVTMTRDTSIDTAYMILSSLISDDTAVYYCARDEDWNFGSWFDSWGQGTLVTVSS VL: DIVMTQTPLSSPVTLGQPASISCRSSQTLVHGDGNTYLSWIQQRPGQPPRLLIYKVSNQFSGVPDRFSGSGAGTDFTLKISRVEAEDVGLYFCMQATHFPITFGQGTRLEIK
99	< 0.25		93	< 4					316000	246	94	167	3.78e-09	H2aM8306N (antibody, V domains shown, human variable regions, mouse IgG2 Fc (H2aM prefix); also called H2M8306N) VH: EVQLVESGGGLVQPGGSLRLSCAASGFTFSRFWMSWVRQAPGKGLEWVANINQDGTEKYYVDSVKGRFTISRDNAKNSLYLQMNSLRAGDTAVYYCANTYYDFWSGHFDYWGQGTLVTVSS VL: not shown
98	< 0.25		98	< 4					193000	166	94	181	3.09e-10	H2aM8309N (antibody, V domains shown, human variable regions, mouse IgG2 Fc (H2aM prefix); also called H2M8309N) VH: not shown VL: DIQMTQSPSSLSASVGDRVTITCRTSQGIRNDLGWYQQKPGKAPKRLIYAASSLQSGVPSRFSGSGSGTEFTLTISSLQPEDFATYYCLQHNNYPYTFGQGTKLEIK
100	< 0.25	97	100	4.9	0.708 nM	0.00154 s⁻¹	2.18e+06 M⁻¹ s⁻¹	0.133 h	282000	188		124		H1H9329P (antibody, V domains shown, human IgG1 Fc (H1H prefix)) VH: EVQLVESGGGLVQSGGSLRLSCAASGFTFSSYWMSWVRQAPGKGLEWVANIKQDGSEKYYVDSVKGRFTISRDNAKNSLYLQMNSLRADDTAVYYCARDDIVVVPAPMGYYYYYFGMDVWGQGTTVTVSS VL: DIQMTQSPSSLSASVGDRVTITCRASQGIRNDLGWYQQKPGKAPKRLIYAASSLQSGVPSRFSGSGSGTEFTLTISSLQPEDFATYYCLQHNSYPYTFGQGTKLEIK
100	< 0.25		99	< 4					163000	73	94	173	2.2e-10	H2aM8323N (antibody, V domains shown, human variable regions, mouse IgG2 Fc (H2aM prefix); also called H2M8323N) VH: QVQLVQSGAEVKMPGSSVRVSCKASGGIFSSSTISWVRQAPGQGLEWMGEIIPVFGTVNYAQKFQDRVIFTADESTTTAYMELSSLKSGDTAVYFCARNWGLGSFYIWGQGTMVTVSS VL: EIVLTQSPGTLSLSPGERATLSCRASQSFNFNYLAWYQQKPGQAPRLLIYGASSRATGIPDRFSGSGSGTDFTLTINRLEPEDFGVFYCQQYESAPWTFGQGTKVEIK
